Experimental data reported in patent publication US20190248902A1 (published 2019).

What was measured:
[1] = biological target: T1, human ASGR-1 mutant construct H203 (human, UniProt P07306 1-291); assay: FACS ratio: H203 normalized value / wt normalized value
T1 construct: Arg/Glu scanning: non-arginine residues were changed to arginine; Transiently expressed on CHO-S cells
T1 sequence: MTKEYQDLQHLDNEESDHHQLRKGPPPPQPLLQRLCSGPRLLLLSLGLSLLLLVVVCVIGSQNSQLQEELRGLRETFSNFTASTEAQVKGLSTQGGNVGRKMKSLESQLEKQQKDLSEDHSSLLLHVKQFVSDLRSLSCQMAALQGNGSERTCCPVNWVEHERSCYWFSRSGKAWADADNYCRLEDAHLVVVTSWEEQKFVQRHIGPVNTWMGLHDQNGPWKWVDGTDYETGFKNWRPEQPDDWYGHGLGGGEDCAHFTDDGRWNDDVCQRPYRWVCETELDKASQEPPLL
Protocol: (§1) The ability of human ASGR-1-specific, ligand competing antibodies to bind to the mutant hASGR-1 proteins was assessed by FACS as described above.
(§2) Antibodies were tested for binding to the individual mutant and wild type ASGR-1 constructs using normalized antibody concentrations (5 ug/ml). CHO—S cells transiently expressing the appropriate mutated or non-mutated antigen of interest were mixed with antibody sample or controls, incubated for 1 hour at 4° C., and then washed twice. Cells with bound antibody were then incubated with Alexa Fluor® 647 IgG Fc fragment-specific detection antibody and 7-AAD viability stain for 15 minutes at 4° C., washed once and resuspended in FACS buffer. Samples were analyzed using a BD Accuri™ Flow Cytometer and an Intellicyt HyperCyt Autosampler. As a negative control, supernatants and controls were also screened against CHO—S cells transfected with empty parental vector (referred to as mock). […] Because mutant hASGR-1 expression levels varied relative to each other, sample binding data for each construct was normalized for expression by dividing the binding data from an antibody not affected by the mutations (e.g., 65C12) by the binding values of each test antibody on a given mutant construct. Also, because the antibody binding affinities varied amongst the samples, the expression corrected data (above) was further normalized by comparing test antibody binding on each mutant construct to wild type hASGR-1. Identification of specific mutations that affected test antibody binding was performed by an interquartile range (IQR) analysis to determine statistical outliers. A mutation was identified as a “hit” if the calculated values were >3× the IQR (above the 3rd quartile/upper fence) for a given mutant construct. Although IQR analysis was used here to determine signifance and identify hits, one skilled in the art will recognize that a number of methods could be employed in order to normalize the data (eg. using epitope-tagged constructs or other ASGR-1-binding antibodies directed against non-CBD epitopes).

human ASGR-1 (wild type) [2] = biological target: T2, human ASGR-1 (wild type) (human, UniProt P07306 1-291); assay: FACS ratio: 65C12 geomean / this mAb geomean
T2 construct: also called wt ASGR1; huASGR-1
T2 sequence: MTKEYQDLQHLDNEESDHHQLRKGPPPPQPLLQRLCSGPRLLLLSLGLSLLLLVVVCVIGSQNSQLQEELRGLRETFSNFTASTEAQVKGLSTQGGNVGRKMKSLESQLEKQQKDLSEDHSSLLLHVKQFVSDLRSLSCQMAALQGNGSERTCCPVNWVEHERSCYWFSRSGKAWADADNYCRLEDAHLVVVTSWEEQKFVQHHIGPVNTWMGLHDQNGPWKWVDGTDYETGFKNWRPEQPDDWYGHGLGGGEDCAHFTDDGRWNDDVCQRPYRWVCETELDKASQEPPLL
Protocol: (§3) Mutant hASGR-1 variants were constructed such that non-arginine residues were changed to arginine and where wild type arginine residues were mutated to glutamic acid. Each mutant hASGR-1 sequence was then cloned into a mammalian expression vector and used to transiently transfect CHOs cells. The ability of human ASGR-1-specific, ligand competing antibodies to bind to the mutant hASGR-1 proteins was assessed by FACS as described above.
(§4) Antibodies were tested for binding to the individual mutant and wild type ASGR-1 constructs using normalized antibody concentrations (5 ug/ml). CHO—S cells transiently expressing the appropriate mutated or non-mutated antigen of interest were mixed with antibody sample or controls, incubated for 1 hour at 4° C., and then washed twice. Cells with bound antibody were then incubated with Alexa Fluor® 647 IgG Fc fragment-specific detection antibody and 7-AAD viability stain for 15 minutes at 4° C., washed once and resuspended in FACS buffer. Samples were analyzed using a BD Accuri™ Flow Cytometer and an Intellicyt HyperCyt Autosampler. As a negative control, supernatants and controls were also screened against CHO—S cells transfected with empty parental vector (referred to as mock). […] Because mutant hASGR-1 expression levels varied relative to each other, sample binding data for each construct was normalized for expression by dividing the binding data from an antibody not affected by the mutations (e.g., 65C12) by the binding values of each test antibody on a given mutant construct. Also, because the antibody binding affinities varied amongst the samples, the expression corrected data (above) was further normalized by comparing test antibody binding on each mutant construct to wild type hASGR-1. Identification of specific mutations that affected test antibody binding was performed by an interquartile range (IQR) analysis to determine statistical outliers. A mutation was identified as a “hit” if the calculated values were >3× the IQR (above the 3rd quartile/upper fence) for a given mutant construct.

[3] = biological target: T1, human ASGR-1 mutant construct H203; assay: FACS ratio: 65C12 geomean / this mAb geomean
Protocol: as §3, §4

human ASGR-1 (wild type) [4] = biological target: T2, human ASGR-1 (wild type); assay: FACS, transfected CHO-S cells, mAb 5 ug/ml
Protocol: as §1, §2

[5] = biological target: T1, human ASGR-1 mutant construct H203; assay: FACS, transfected CHO-S cells, mAb 5 ug/ml
Protocol: as §1, §2

Binder | Normalization to wt ASGR1 Binding [1] | Expression Normalization to mAb 65C12 (human ASGR-1 (wild type) [2]) | Expression Normalization to mAb 65C12 [3] | FACS Binding Geomean (human ASGR-1 (wild type) [4]) | FACS Binding Geomean [5]
65E9 (antibody, V domains shown, mAb) VH: not shown VL: SYELTQPPSVSVSPGQTASITCSGDKLGNKYDYWYQQKPGQSPVLVIYQDRKRPSGIPERFSGSNSGNTATLTISGTQAMDEADYYCQAWDNSTVVFGGGTKLTVL | 9.25 | 1.89 | 17.5 | 29600 | 1470
50G9 (antibody, V domains shown, mAb) VH: QVQLVESGGGVVQPGRSLRLSCAASGFIFSSYGMHWVRQAPGKGLEWVAVISQDGIIRYYADSVKGRFTISRDNSKNTLYLQMNSLRAEDTAVYYCARDVKQWLVRTYGMDVWGQGTTVTVSS VL: SYELTQPPSVSVSPGQTASITCSGDKLGDKYACWYQQKPGQSPVLVIYQDSKRPSGIPERFSGSNSGNTATLTISGTQARDEAEYYCQARNSRRGVFGGGTRLTVL | 11.4 | 1.5 | 17.1 | 37300 | 1510
60D2 (antibody, V domains shown, mAb) VH: EVQLVESGGGLVQPGGSLRLSCGASGFTFSSYSMNWVRQAPGKGLEWVSYISESSNIIYYTDSVKGRFTISRDNAMNSLYLQMNSLRDEDTAVYYCARADTPMVLYFYGMDVWGQGTTVTVSS VL: SYELTQPPSVSVSPGQTASITCSGNKLGDKYASWYQQRPGQSPVLVIYQDNKRPSGIPERFSGSNSGNTATLTISGTQTMDEADYYCQAWDNNTVVFGGGTKLTVL | 9.95 | 1.89 | 18.8 | 29600 | 1370
59F2 (antibody, V domains shown, mAb) VH: EVQLVESGGGLVQPGGSLRLSCGASGFTFSSYSMNWVRQAPGKGLEWVSYISGSSNIIYYTDSVKGRFTISRDNAKNSLYLQMNSLRDEDTAVYYCARADTPMVLYFYGMDVWGQGTTVTVSS VL: SYELTQPPSVSVSPGQTASITCSGDKLGDKYASWYQQRPGQSPVLVIYQDNKRPSGIPERFSGSNSGNTATLTISGTQAMDEADYYCQAWDNNTVVFGGGTKLTVL | 9.53 | 2.01 | 19.1 | 27900 | 1350
60E8 (antibody, V domains shown, mAb) VH: QVQLQESGPGLVRPSATLSLTCTVSGGSISRSSYYWGWIRQPPGKGLEWIGSIYYSGSASYNPSLKSRVTISVDTSENQFSLRLSSVTAADTAVYYCARLDSGWSFDYWGQGTLVTVSS VL: DIQMTQSPSSLSASVGDRVTFTCRASQGIRNDLGWFQQKPGKAPKRLIYAASSLQSGVPSRFSGSGSGTEFTLTISSLQPEDFATYYCLQHSSYPLTFGGGTKVEIK | 11.7 | 1.45 | 17 | 38700 | 1520
72F5 (antibody, V domains shown, mAb) VH: EVQLLESGGGLVQPGGSLRLSCAASGFTFSSYAMIWVRQAPGKGLEWVSTISGSGGYTYSADSVKGRFTISRDNSKNTLYLQMNSLRAEDTAVYYCARRIAVTGTEWYDPWGQGTLVTVSS VL: DIQMTQSPSSLSASVGDRVIIPCRASQNISSYLNWYQQKPGKAPKLLIYAASSLQSGVPSRFSGSGSGTDFTLTISSLQPEDFATYSCQQTYSTPTFGQGTRLDIN | 1.22 | 2 | 2.45 | 28000 | 10500
151B9 (antibody, V domains shown, mAb) VH: EVQLLESGGGLVQPGGSLRLSCAASGFTFSSYAMSWVRQAPGKGLEWVSVISGGGSSTYYADSVKGRFTISRDNSKNTLYLQMNSLRAEDTAVYYCAKWRGNPTDYGMDVWGQGTTVTVSS VL: SYELTQPPSVSVSPGQTASIACSGDNLGDKYASWYQQKPGQSPVLVIYQDSKRPSGIPERFSGSNSGNTATLTISGIQAMDEADYYCQAWDSSTVVFGGGTKLTVL | 1.11 | 2.38 | 2.65 | 23500 | 9740
52H2 (antibody, V domains shown, mAb) VH: EVQLLESGGGLVQPGGSLRLSCAASGFTFSRNAMSWVRQAPGMGLEWVSAISGRGGNTFYADSVKGRFTVSRDNSKNTLFLQMNSLRAEDTAVYYCAKNGREQWLDYWGQGTLVTVSS VL: DIQMTQSPSSVSASVGDRVTITCRASQNITNWLAWFQQKPGRAPKLLIYTTSSLQSGVPSRFSGSGSGTDFTLTISSLQPEDFATYCCQQTNSFPWTFGHGTKVEVK | 1.18 | 1.17 | 1.38 | 48000 | 18600
149D11 (antibody, V domains shown, mAb) VH: EVQLLESGGGLVQPGGSLRLSCAASGFTFSSYAMSWVRQAPGKGLEWVSAISGRGGNTFYADSVKGRFTISRDNSKNTLYRQMNSLRAEDTAVYYCAKKDYDYVWGSPYFDYWGQGTLVTVSS VL: DIQMTQSPASVSASVGDRVTITCRASQNISNWLTWYQQKPGKAPKLLIYAASSLQSGVPSRFSGSGSGTDFTLSISSLQPEDFATYYCQQTDSFPFTFGPGTKVDVK | 1.22 | 2.38 | 2.91 | 23600 | 8870
175F4 (antibody, V domains shown, mAb) VH: QVQLQQSGPGLVKPSQTLSLTCAISGDSVSSNSAAWNWIRQSPSRGLEWLGRTYYRSKWYNAYPVSMESRISINPDTSKNQFSLQLNSVTPEDTAVYYCARDKAAGRNDFYYYGMDVWGQGTTVTVSS VL: QSALTQPASVSGSPGQSITISCTGTSSDVGRFNLVSWYQQHPGYAPKLMIYEVSKRPSGVSNRFSGSKSGNTASLTISGLQAEDEADYYCCSYAGSSTYVVFGGGTKLTVL | 1.04 | 1.67 | 1.74 | 33600 | 14800
